Laboratory results reported in patent publication US20240026035A1 (published 2024).

B1: human alpha-gal-specific IgE mAb 16D9 (antibody, V domains shown)
VH: QVQLQQWGAGLLKPSETLSLTCAVYGGTFSDYFYTWIRQPPGKGLEWIGEVSHTGRTSYIPSLKSRVTMSVDTSKNQFSLNLSSVTDADTAVYYCGRGRGYTWNDWGQGTLVTVSS
VL: QSALTQPASVSGSPGQSITISCTGTITDVGGYDYVSWYQQHPGKAPKLIIFLVNNRPSGVSDRFSGSKSGNTASLTISGLRVEDEADYYCMSYTCSNPYTCSSLYVFGTGTKVTVL
notes: the IgE constant regions are not
B2: human alpha-gal-specific IgE mAb 10H8 (antibody, V domains shown)
VH: QVQLVESGGGVVQPGRSLRLSCAVSGFTFRSFGMHWVRQAPGKGLEWVAVIWHDGSNKHYADSVKGRFTISRDDSKNTLFLQMNSLRAEDTAVYYCARESEEQGNMDVWGQGTTVTVSS
VL: DVVMTQSPLSLPATLGQPASISCRSSHSLVYSNGNTYLNWFQQRPGQSPRRLFFQVSNRDSGVPDRFSGSGSVTNFTLKISRVEAEDVGVYYCMEGSHWPPYTFGQGTRLDIR
notes: as for B1

Biological target: T1, bovine thyroglobulin (bovine, UniProt P01267 20-2769, carries alpha-gal (galactose-alpha-1,3-galactose) glycans)
T1 construct: Antigen coated on ELISA plates, blotted, or on the ImmunoCAP o215 solid phase; It is recognised through its alpha-gal glycans; also called BTG; Thyroglobulin, bovine
Experiment: direct ELISA, bovine thyroglobulin coated at 25 ug/ml, purified IgE dilution series
Description: Relative fluorescence intensity or optical density was determination on a Molecular Devices plate reader.
By performing EC₅₀ assays using purified IgE mAb, rough comparisons between mAb binding can be made.

T1 sequence (P01267 20-2769 limits assumed): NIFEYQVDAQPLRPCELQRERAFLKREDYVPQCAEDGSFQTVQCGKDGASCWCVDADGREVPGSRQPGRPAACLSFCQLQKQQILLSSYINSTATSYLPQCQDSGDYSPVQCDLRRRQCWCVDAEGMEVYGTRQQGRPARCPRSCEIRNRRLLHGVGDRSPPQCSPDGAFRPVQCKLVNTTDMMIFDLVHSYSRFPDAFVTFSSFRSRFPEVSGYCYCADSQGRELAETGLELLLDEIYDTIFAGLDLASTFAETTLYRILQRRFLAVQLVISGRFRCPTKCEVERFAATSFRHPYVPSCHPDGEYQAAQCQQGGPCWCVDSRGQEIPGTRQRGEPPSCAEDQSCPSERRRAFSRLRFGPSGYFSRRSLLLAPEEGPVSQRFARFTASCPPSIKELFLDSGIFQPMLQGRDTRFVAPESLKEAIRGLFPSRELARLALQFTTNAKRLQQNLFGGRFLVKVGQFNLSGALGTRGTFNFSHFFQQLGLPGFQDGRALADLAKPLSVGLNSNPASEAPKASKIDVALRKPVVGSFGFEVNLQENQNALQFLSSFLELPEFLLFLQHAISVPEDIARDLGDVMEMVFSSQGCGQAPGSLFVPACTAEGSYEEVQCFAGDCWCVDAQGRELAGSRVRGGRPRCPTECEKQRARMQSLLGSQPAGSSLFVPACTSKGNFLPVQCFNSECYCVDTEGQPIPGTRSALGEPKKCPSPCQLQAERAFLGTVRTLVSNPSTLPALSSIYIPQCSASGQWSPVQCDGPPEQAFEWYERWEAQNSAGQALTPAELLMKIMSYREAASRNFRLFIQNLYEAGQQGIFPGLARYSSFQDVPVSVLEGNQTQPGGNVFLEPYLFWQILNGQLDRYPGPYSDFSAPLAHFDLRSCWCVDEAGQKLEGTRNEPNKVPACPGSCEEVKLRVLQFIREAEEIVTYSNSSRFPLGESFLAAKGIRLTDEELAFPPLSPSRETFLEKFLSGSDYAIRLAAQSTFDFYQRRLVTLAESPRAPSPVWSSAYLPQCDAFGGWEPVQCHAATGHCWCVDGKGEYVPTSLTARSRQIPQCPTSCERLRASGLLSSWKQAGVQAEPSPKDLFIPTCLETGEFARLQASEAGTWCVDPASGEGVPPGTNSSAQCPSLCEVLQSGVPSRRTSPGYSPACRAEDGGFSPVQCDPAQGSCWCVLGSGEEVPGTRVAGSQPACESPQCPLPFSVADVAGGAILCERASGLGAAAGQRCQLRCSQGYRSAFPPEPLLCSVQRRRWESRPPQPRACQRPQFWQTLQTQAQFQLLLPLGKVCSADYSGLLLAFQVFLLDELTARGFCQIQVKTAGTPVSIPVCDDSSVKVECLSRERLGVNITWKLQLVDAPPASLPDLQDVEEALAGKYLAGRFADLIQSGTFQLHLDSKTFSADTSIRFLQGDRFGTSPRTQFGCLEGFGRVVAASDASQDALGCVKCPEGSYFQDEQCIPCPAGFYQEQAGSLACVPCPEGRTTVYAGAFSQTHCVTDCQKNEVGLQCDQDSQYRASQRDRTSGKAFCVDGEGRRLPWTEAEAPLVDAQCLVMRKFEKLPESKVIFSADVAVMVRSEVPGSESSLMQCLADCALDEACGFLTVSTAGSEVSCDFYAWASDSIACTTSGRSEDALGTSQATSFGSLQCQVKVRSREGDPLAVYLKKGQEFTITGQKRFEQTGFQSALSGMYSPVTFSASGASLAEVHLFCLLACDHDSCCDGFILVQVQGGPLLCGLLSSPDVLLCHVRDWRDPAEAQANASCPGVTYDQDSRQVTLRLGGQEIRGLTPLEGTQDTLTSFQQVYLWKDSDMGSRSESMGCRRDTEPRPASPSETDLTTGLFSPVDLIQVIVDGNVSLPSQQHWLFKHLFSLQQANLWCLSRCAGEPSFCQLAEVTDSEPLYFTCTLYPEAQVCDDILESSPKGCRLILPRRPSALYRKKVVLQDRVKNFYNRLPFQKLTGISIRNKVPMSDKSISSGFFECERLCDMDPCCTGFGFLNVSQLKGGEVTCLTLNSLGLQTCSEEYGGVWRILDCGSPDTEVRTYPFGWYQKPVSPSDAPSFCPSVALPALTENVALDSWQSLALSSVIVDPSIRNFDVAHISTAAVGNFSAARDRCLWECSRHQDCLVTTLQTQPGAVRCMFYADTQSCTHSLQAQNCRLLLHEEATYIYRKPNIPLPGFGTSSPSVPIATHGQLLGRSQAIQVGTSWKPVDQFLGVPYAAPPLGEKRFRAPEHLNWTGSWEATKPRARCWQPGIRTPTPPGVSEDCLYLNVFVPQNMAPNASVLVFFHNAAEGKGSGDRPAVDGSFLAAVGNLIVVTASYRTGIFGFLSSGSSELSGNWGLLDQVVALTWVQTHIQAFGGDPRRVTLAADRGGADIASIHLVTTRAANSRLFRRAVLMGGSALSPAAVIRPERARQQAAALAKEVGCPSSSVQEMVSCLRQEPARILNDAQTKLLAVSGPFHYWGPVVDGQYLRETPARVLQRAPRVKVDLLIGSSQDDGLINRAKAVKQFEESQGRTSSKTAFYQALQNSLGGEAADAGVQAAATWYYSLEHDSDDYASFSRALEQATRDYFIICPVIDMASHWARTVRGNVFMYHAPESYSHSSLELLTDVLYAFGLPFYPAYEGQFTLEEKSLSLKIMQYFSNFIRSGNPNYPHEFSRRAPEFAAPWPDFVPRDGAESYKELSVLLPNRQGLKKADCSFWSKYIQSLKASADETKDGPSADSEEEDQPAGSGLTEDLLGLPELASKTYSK

| Binder | EC50 |
| --- | --- |
| B1 | 0.016 µg/mL |
| B2 | 0.072 µg/mL |
